This assay deals with T1, myosin Va (rat (endogenous in hippocampus), UniProt Q9QYF3 1-1828).
T1 construct: myosin Va, rat, endogenous in hippocampus; also called MyoVa; source: endogenous, rat hippocampal homogenate
Kind of assay: co-IP; total rat hippocampal lysates with primary antibody and Protein A/G agarose, 4°C; buffer pH 7.4, 0.05 mol/L HEPES, 0.15 mol/L NaCl, 0.5% NP-40, 1% Triton X-100; non-immune IgG as control; slices untreated or treated with PMA (0.5 umol/L, 10 min) and/or AIP (1 umol/L). The note with it: partners not purified.

T1 sequence (Q9QYF3 whole entry): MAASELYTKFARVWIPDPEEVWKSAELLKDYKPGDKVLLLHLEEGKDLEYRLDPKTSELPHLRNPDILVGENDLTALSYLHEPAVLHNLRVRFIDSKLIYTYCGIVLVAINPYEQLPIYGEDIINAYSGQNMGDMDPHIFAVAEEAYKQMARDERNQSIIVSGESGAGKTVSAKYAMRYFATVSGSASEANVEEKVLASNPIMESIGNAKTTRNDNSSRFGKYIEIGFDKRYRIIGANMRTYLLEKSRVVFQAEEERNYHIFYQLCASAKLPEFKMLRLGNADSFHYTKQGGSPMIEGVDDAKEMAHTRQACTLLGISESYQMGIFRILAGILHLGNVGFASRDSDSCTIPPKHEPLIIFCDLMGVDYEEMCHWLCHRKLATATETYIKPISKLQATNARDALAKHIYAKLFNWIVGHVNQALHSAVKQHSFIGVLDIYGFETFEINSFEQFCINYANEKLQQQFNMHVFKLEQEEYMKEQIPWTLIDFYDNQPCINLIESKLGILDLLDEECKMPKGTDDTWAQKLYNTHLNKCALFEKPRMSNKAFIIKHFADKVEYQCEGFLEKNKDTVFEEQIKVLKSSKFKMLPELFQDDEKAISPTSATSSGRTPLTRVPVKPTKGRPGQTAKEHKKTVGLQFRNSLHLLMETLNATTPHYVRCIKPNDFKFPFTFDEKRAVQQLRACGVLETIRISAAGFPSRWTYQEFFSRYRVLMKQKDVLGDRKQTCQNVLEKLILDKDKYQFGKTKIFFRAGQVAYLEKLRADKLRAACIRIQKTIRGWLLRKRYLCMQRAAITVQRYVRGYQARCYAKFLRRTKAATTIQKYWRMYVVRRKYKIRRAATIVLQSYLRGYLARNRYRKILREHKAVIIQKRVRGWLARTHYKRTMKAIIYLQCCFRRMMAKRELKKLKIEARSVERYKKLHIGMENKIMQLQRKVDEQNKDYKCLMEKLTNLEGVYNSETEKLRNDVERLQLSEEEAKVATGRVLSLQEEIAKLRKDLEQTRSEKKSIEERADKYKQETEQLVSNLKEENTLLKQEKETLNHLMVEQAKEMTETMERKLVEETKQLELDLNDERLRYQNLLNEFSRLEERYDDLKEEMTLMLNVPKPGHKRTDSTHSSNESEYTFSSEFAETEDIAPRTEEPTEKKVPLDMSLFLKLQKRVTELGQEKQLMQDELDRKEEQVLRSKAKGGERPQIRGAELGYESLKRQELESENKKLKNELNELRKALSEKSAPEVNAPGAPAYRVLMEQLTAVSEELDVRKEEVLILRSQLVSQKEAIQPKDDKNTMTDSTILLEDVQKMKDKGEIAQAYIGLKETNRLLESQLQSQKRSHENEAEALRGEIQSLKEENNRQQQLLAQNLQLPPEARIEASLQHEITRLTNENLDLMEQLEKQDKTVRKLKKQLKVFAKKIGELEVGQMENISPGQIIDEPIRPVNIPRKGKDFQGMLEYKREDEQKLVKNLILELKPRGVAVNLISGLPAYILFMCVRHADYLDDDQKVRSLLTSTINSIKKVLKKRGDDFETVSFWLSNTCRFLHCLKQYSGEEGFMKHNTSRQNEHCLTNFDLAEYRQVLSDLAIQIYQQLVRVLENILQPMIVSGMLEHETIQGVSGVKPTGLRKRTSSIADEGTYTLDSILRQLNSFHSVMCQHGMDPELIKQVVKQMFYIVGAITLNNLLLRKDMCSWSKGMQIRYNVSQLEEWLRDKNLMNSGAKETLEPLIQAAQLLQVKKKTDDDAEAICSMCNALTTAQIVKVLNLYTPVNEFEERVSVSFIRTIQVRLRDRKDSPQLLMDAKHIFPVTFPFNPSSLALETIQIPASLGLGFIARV

B1: NMDA receptor subunit GluN2A (receptor)
chain: not shown
notes: NMDA receptor subunit GluN2A, rat, endogenous in hippocampus; source: endogenous, rat hippocampal homogenate (slices or cultured hippocampal neurons)
B1: the “co-IP signal with PMA, normalised to control (IP with anti-MyoVa)” value was 1.59 fold of control.

Source of the values: paper PMC11306496, “Myosin Va-dependent Transport of NMDA Receptors in Hippocampal Neurons” (Neuroscience Bulletin, 2024).
